koff and kon data for one molecule are collected here from PMC4694755 (Molecular Biology of the Cell, 2016).

In this assay the target is Mouse importin β (mouse, UniProt P70168 1-876). As to the kind of experiment: SPR. A general note: SPR reads the build-up and loss of mass on a sensor chip optically.
Sequence of Mouse importin β (P70168 whole entry): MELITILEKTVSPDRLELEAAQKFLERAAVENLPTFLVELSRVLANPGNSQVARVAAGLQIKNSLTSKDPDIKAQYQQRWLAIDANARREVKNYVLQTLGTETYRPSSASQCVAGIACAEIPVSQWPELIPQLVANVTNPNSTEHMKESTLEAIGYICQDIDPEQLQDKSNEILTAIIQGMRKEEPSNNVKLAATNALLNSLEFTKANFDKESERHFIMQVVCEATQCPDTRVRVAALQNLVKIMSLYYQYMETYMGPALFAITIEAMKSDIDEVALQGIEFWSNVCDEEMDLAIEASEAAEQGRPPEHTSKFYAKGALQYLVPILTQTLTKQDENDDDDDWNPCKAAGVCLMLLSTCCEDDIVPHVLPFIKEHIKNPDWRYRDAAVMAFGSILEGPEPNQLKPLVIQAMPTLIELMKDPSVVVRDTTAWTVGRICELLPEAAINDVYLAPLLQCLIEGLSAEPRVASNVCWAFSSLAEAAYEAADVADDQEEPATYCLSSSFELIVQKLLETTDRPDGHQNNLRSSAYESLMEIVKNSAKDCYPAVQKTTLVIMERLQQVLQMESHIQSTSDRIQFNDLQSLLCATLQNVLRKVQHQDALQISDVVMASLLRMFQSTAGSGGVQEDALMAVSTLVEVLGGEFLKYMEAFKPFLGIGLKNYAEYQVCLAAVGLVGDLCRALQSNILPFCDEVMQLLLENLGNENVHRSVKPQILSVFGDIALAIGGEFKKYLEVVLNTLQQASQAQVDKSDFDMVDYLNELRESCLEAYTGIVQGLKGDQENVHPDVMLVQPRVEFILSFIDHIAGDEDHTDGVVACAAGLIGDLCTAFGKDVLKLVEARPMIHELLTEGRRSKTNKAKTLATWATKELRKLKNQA

B1: importin β–binding domain of rat importin α (IBB, amino acids 1–66) (domain or fragment)
chain: not shown
As for B1, the koff (commonly the first-order rate constant of dissociation) was determined as 0.00132 s⁻¹ and the kon – broadly, a measure of how fast the partners come together – is 99400 M⁻¹ s⁻¹.
